From US20210102933

Columns and labels:
[1] = tested on: T1, FRET peptide substrate EDANS-A-L-E-V-L-F-Q/G-P-K-DABCYL
T1 sequence: ALEVLFXPK

[2] = tested on: FTC-casein

| Substance | fluorescent signal upon cleavage of the FRET peptide substrate in microwells (18 hours, 100 µg/mL peptide) [1] | fluorescent signal in trypsin cleavage assay in microwells (0.5 µg/ml trypsin, 10 µg/ml FTC-casein, 1 and 18 hours) [2] | fluorescent signal in trypsin cleavage assay in microwells (0.05, 0.5 and 5 µg/ml trypsin, 10 µg/ml FTC-casein, 1 hour) [2] |
| --- | --- | --- | --- |
| human rhinovirus 3C protease | The secreted enzyme successfully cleaved the substrate, resulting in a fluorescent signal |  |  |
| trypsin |  | the intensity of the observed fluorescent signal was dependent on the time of incubation | the intensity of the observed fluorescent signal was dependent on the concentration of trypsin in the microwells |
